Measured values from patent US20250002563A1 (UNIVERSITY OF PITTSBURGH OF THE COMMONWEALTH SYSTEM OF …, published 2025).

Experiments:
[1] = target: RBDSARS-CoV (SARS-CoV S protein residues 318-510, C-terminal His-tag) (SARS-CoV, UniProt P59594 318-510); assay: ELISA
[2] = target: RBDSARS-CoV-2 (SARS-CoV-2 S protein residues 319-539, C-terminal His-tag) (SARS-CoV-2, UniProt P0DTC2 319-539); assay: ELISA

Binder	IC50 [1] [nM]	IC50 [2] [nM]
5p-25 (VHH) VHH: HVQLVESGGGLVQAGGSLRLSCAASGHISSRYAMAWFRQGPGKERDFVAGMSSGASTFYAESVKGRFTLSRDNAKNAMYLQMNSLKPEDTAVYYCAADSSPLRYGLSYSSNRYDYWGQGTQVTVSS	< 10	< 10
4P-92 (VHH) VHH: QVQLVESGGGLVQTGGSLRLSCAVSGYTFSTFPTAWFRQAPGKEREFVAGIRWNGGSRDYTEYADFVKGRFTISRDNAKNMVYLQMISLKPEDTALYYCAASHGVIDGTSANDYRYWGQGTQVTVSS	1000 to 8000	< 10
5p-1 (VHH) VHH: QVQLVESGGGLVQAGGSLRLSCAVSGRTGNRWPMGWFRQAPGKEREFVATISWSDSRTYYADSVKGRFTISRDNAKNTVFLQMASLKPEDTAVYYCAAAHARVYGANWSSSNRDDYDSWGQGTQVTVSS	100 to 1000	10 to 100
5p-2 (VHH) VHH: QVQLVESGGGLVQAGGSLRLSCAVSGRTGSRWPMGWFRQAPGKEREFVATISWSDSRTYYADSVKGRFTIARDNAKNTVFLQMASLKPEDTAVYYCAAAHGRVYGANWSSTNRYDYDSWGQGTQVTVSS	10 to 100	10 to 100
5p-5 (VHH) VHH: QVQLVESGGGLVQAGGSLRLSCAVSGRTGNRWPMGWFRQAPGKEREFVATISWSDSRTYYADSVKGRFTISRDNAKNTVFLQMASLKPEDTAVYYCAAATARVYGANWSSSNRDDYDSWGQGTQVTVSS	10 to 100	10 to 100
4P-1 (VHH) VHH: DVQLVESGGGLVQAGGSLRLSCAASGRTGSRYPMGWFRQAPGKEREFVATISWSDSRTYYADSVKGRFTISRDNAKNTVFLQMASLKPEDTAVYYCAAAHARVYGANWSSSNRYDYDSWGQGTQVTVSS	1000 to 8000	10 to 100
4P-44 (VHH) VHH: DVQLVESGGGLVQAGGSLRLSCAASGRTFSRYAAGWFRQAPGKEREFVAVIEWNGDSAYYADSVKGRFTISRDNAKNTVYLQMNRLKPEDTAVYICAVGGNHYSRSKYYTADEYDYWGQGTQVTVSS	100 to 1000	< 10
5p-121 (VHH) VHH: DVQLVESGGGLVQAGGSLRLSCAASGRTFSRYAAGWFRQAPGKERSFVAVIEWDGDTAYYSDSVKGRFTISRDNAKNTLYLQMNRLKPEDTAVYICAVGGNHYSSSKYYIADEYDYWGQGTQVTVSS	< 10	< 10
4P-71 (VHH) VHH: HVQLVESGGGLVQAGGSLRLSCAASGRTFSRFAAGWFRQAPGKEREFVAVIDWNGGSAYYADSVKGRFTISRDNAKNTVYLQMNRLKPGDTAVYICAIGGNHYDPSRYYTADEYDYWGQGTQVTVSS	10 to 100	< 10
5p-117 (VHH) VHH: DVQLVESGGGLVQAGESLRLSCAASGRTFRNFAAGWFRQTPGKDREFVAVIEYNGDSAYYADSVKGRFTISRDNAKNTVYLQMNRLKPGDTAVYICAIGGNHYDPSKYYIADEYDYWGQGTQVTVSS	< 10	< 10
5p-120 (VHH) VHH: HVQLVESGGGLVQAGGSLRLSCAASGRTFSRYAAGWFRQAPGKEREFVAVIEWDGDSAYYADSVKGRFTISRDNAKNTVYLQMNRLKPEDTAVYICAVGGNHYSRSKYYNLDEYDYWGQGTQVTVSS	< 10	< 10
4P-42 (VHH) VHH: HVQLVESGGGLVQAGGSLRLSCAASGRTFSRYAAGWFRQAPGKEREFVAVIEWDGDNAYYADSVKGRFTISRDNAKNTVYLQMNRLKPEDTAVYICAVGGNHYSPNKYYTADEYDYWGQGTQVTVSS	< 10	< 10
5p-34 (VHH) VHH: QVQLVESGGGLVQAGGSLRLSCTASGRTFSRYAAGWFRQAPGKEREFVAVIEWNGDSAYYTDSAKGRFTISRDNTKNTVYLQMNRLKPEDTAVYICAIGGNHYSPSKYYIADEYDYWGQGTQVTVSS	< 10	< 10
5p-119 (VHH) VHH: QVQLVESGGGLVQAGGSLRLSCAASRRTFSNYAAGWFRQAPGKEREFVAVIEWNGESAYYADSVKGRFTISRDNAKNTVYLQMNRLKPEDTAIYICAIGGNHYSRSKYYIADEYDYWGQGTQVTVSS	< 10	< 10
5p-59 (VHH) VHH: QVQLVESGGGLVQAGGSLRLSCAVSGRTISTFGMAWFRQAPGKVREFVATITRDEDLTLYADSVKGRFTISRDTAKNTVFLQMNSLKIEDTALYYCAVRRDDSWGYSRQSIEYDYWGQGTQVTVSS	> 8000	< 10
5p-26 (VHH) VHH: DVQLVESGGGLVQAGGSLRLSCAASGRTLRSYNMGWFRQPPGKEREFVAALSWTGLGTYYADSVKGRFTISRDITKNTLYLQMDSLQPEDTANYYCAADSTLDRLHSAESDYRYWGQGTQVTVSS	> 8000	< 10
4P-46 (VHH) VHH: HVQLVESGGGLVQAGGSLRLSCAASRIFSTSAMGWFRQAPGKEREFVAAISWSGTNTHYADSVKGRFAISTDNAKNTVYLQMNSLKPEDTAVYYCAQGGWGISQPIEVDYWGKGTQVTVSS	10 to 100	< 10
4P-47 (VHH) VHH: HVQLVESGGGLVQAGGSLRLSCAADARFSTSAMGWFRQAPGKEREFVAAISWSGANTHYADTVKGRFTISTDTAKNTVYLQMNSLKPEDTAVYYCAQGGWGITQPISVDYWGKGTQVTVSS	< 10	< 10
5p-125 (VHH) VHH: HVQLVESGGGLVQAGDSLRLSCAASRIFSTSAMGWFRQAPGKEREFVAAISWSGTNTHYADPVKGRFAISTDNAKNTVYLQMNSLKPEDTAVYYCAQGGWGLRQPIEVDYWGKGTQVTVSS	10 to 100	< 10
5p-124 (VHH) VHH: HVQLVESGGGLVQAGDSLRLSCAASRIFSTSAMGWFRQAPGKEREFVAAISWSGGNVHYLDSVKGRFAISADNSKSTVFLQMNSLKPEDTAVYYCAQGGWGIRQVIEVDYWGKGTQVTVSS	< 10	< 10
5p-127 (VHH) VHH: EVQLVESGGGLVQAGGSLRLSCAASRIFSTSAMGWFRQAPGKEREFVAAISWSGTDTHYANSVKGRFAISTDAAKNTVYLQMNSLEPEDTAVYYCAQGGWGVRQPVEVDYWGKGTQVTVSS	< 10	< 10
5p-37 (VHH) VHH: QVQLVESGGGLVQAGGSLRLSCAASRIFSTSAMGWFRQAPGKEREFVAAISWSGTNTHYTDPVKGRFAISTDNAKSTVYLQMNSLKPEDTAVYYCAQGGWGIRQPIEVDYWGKGTQVTVSS	10 to 100	< 10
